Results published in publication PMC9507364, “Tuning the Size of Large Dense‐Core Vesicles and Quantal Neurotransmitter Release via Secretogranin II Liquid–Liquid Phase Separation” (Advanced Science, 2022).

B1: secretogranin II (SgII), His-mCherry tag removed (natural protein, mouse, UniProt Q03517 31-617, looked up)
chain: QRNQLLQKEPDLRLENVQKFPSPEMIRALEYIEKLRQQAHREESSPDYNPYQGVSVPLQLKENGEESHLAESSRDALSEDEWMRIILEALRQAENEPPSAPKENKPYALNLEKNFPVDTPDDYETQQWPERKLKHMRFPLMYEENSRENPFKRTNEIVEEQYTPQSLATLESVFQELGKLTGPSNQKRERVDEEQKLYTDDEDDVYKTNNIAYEDVVGGEDWSPIEEKIETQTQEEVRDSKENTEKNEQINEEMKRSGQLGLPDEENRRESKDQLSEDASKVITYLRRLVNAVGSGRSQSGPNGDRAARLLQKPLDSQSIYQLIEISRNLQIPPEDLIEMLKAGEKPNGLVEPEQDLELAVDLDDIPEADLDRPDMFQSKMLSKGGYPKAPGRGMVEALPDGLSVEDILNVLGMENVVNQKSPYFPNQYSQDKALMRLPYGPGKSRANQIPKVAWIPDVESRQAPYENLNDQELGEYLARMLVKYPELLNTNQLKRVPSPVSSEDDLQEEEQLEQAIKEHLGPGSSQEMERLAKVSKRIPVGSLKNEDTPNRQYLDEDMLLKVLEYLNQEQAEQGREHLAKRAMENM
notes: signal peptide in the construct; residues 1-617 (total of 617 amino acids; 1-30 is the signal peptide); Non-tagged proteins were made by cutting off His-mCherry with PreScission protease; The SPR methods say only 'Purified SgII', without the state of the tag; also called CgC; SgII_(1–617); source: HEK293S cells, BacMam baculovirus; purified (Ni-NTA, PreScission protease, Superose 6 Increase); not …

Assays:
[1] = biological target: B1; assay: SPR; Biacore T200, 25 °C; purified SgII immobilised on a CM5 chip by amine coupling; SgIII injected as analyte, 2 to 1000 nM in twofold dilutions; 25 mM Tris pH 7.5, 150 mM NaCl, 0.05% P20; dissociation constant calculated in affinity mode; conditions: both partners purified
[2] = biological target: the molecule itself; assay: SEC; Superose 6 Increase 10/300 GL; 25 mM Tris pH 7.5, 500 mM NaCl; self-association

Binder | Kd [1] | binding result [2]
Secretogranin III (SgIII) (natural protein, source: HEK293S cells, BacMam baculovirus; purified) not shown | 21.4 nM | 
B1 |  | binds
mCherry-tagged SgII (SgII-mCherry) (natural protein, mouse, UniProt Q03517 31-617, looked up, signal peptide in the construct; residues 1-617 (total of 617 amino acids; 1-30 is the signal peptide); also called SgII_(1–617) tagged with mCherry; source: HEK293S cells, BacMam baculovirus; purified (Ni-NTA, Superose 6 Increase); not shown: mCherry, C-terminal, kept) QRNQLLQKEPDLRLENVQKFPSPEMIRALEYIEKLRQQAHREESSPDYNPYQGVSVPLQLKENGEESHLAESSRDALSEDEWMRIILEALRQAENEPPSAPKENKPYALNLEKNFPVDTPDDYETQQWPERKLKHMRFPLMYEENSRENPFKRTNEIVEEQYTPQSLATLESVFQELGKLTGPSNQKRERVDEEQKLYTDDEDDVYKTNNIAYEDVVGGEDWSPIEEKIETQTQEEVRDSKENTEKNEQINEEMKRSGQLGLPDEENRRESKDQLSEDASKVITYLRRLVNAVGSGRSQSGPNGDRAARLLQKPLDSQSIYQLIEISRNLQIPPEDLIEMLKAGEKPNGLVEPEQDLELAVDLDDIPEADLDRPDMFQSKMLSKGGYPKAPGRGMVEALPDGLSVEDILNVLGMENVVNQKSPYFPNQYSQDKALMRLPYGPGKSRANQIPKVAWIPDVESRQAPYENLNDQELGEYLARMLVKYPELLNTNQLKRVPSPVSSEDDLQEEEQLEQAIKEHLGPGSSQEMERLAKVSKRIPVGSLKNEDTPNRQYLDEDMLLKVLEYLNQEQAEQGREHLAKRAMENM |  | binds
